The numbers were not newly measured in US20060003347A1 (priority 2002, published 2006), which cites them from elsewhere.

For data set [1] the following is noted: pH 8.5.
The conditions of data set [2]: literature.

For `CCOP(=O)(OCC)Oc1ccc([N+](=O)[O-])cc1` [paraoxon], the “Rate of base-catalysed hydrolysis” value in data set [1] is 2.4e-07 s⁻¹.
Turning to acetylcholinesterase, the kcat in data set [2] is 14000 s⁻¹.
Take catalase: the kcat in data set [2] is 4e+07 s⁻¹.

The term kcat denotes the maximal rate divided by the concentration of active sites.
